Source: US20050002930A1

Molecular target: α5β1 integrin on CD14+ blood monocytes of the dosed animals
Test: FACS occupancy on blood monocytes compared with serum levels of M200

- serum concentration sufficient to completely saturate monocyte α5β1 integrin binding sites: 60 µg/mL
B1: M200 chimeric (mouse/human IgG4) anti-α5β1 integrin antibody (antibody, V domains shown)
VH: QVQLKESGPGLVAPSQSLSITCTISGFSLTDYGVHWVRQPPGKGLEWLVVIWSDGSSTYNSALKSRMTIRKDNSKSQVFLIMNSLQTDDSAMYYCARHGTYYGMTTTGDALDYWGQGTSVTVSS
VL: QIVLTQSPAIMSASLGERVTMTCTASSSVSSNYLHWYQQKPGSAPNLWIYSTSNLASGVPARFSGSGSGTSYSLTISSMEAEDAATYYCHQYLRSPPTFGGGTKLEIKR
